The labels stand for the following.
B1: Gamma-crystallin C, residues 4 to 79; numbered along this chain, P07315 (parent)
chain: ITFYEDRAFQGRSYETTTDCPNLQPYFSRCNSIRVESGCWMLYERPNYQGQQYLLRRGEYPDYQQWMGLSDSIRSC

± gives the uncertainty stated by the source.

Variants of B1 are the subject of the series. Nature of the series: abundance fitness (aPCA) (normalised: wild type 0, dead -1); higher = more abundant; growth selection in yeast, the domain comes from the species named. Conditions: Homo sapiens.
For the variant ITFYEDRAFQGRSYETMTDCPNLQPYFSRCNSIRVESGCWMLYERPNYQGQQYLLRRGEYPDYQQWMGLSDSIRSC, the abundance fitness is -0.124 ± 0.11. As for ITFYEDRAFQGRSYETATDCPNLQPYFSRCNSIRVESGCWMLYERPNYQGQQYLLRRGEYPDYQQWMGLSDSIRSC, the figure is -0.014 ± 0.096; as for ITFYEDRAFQGRSYETTTDCPNLQPYFSRCNSIRVESGCWMLTERPNYQGQQYLLRRGEYPDYQQWMGLSDSIRSC, -0.249 ± 0.21; as for ITFYEDRAFQGRSYETTRDCPNLQPYFSRCNSIRVESGCWMLYERPNYQGQQYLLRRGEYPDYQQWMGLSDSIRSC, -0.168 ± 0.087. Take ITFYEDRAFQGRSYETTTDCPNLQPYFSRCNSIRVESGCWMLYERPNYQGQQYLLRRGEYPDYQQWMYLSDSIRSC: the abundance fitness amounted to 0.097 ± 0.089. As for ITFYEDRAFQGRSYETTTDCPNLQPYFSRCNSIRVESGCWMLYERPNYQGQQYLLRRGEYPDYQQWMDLSDSIRSC, the figure is -0.042 ± 0.13. Under ITFYEDRAFQGRSYETTTDCPNLQPYFSRCNSIRVESGCPMLYERPNYQGQQYLLRRGEYPDYQQWMGLSDSIRSC stands -0.939 ± 0.27; under ITFYEDRAFQGRSYETTTDCPNLQPYFSRCNSIRVESGCWMLYERPNYQGQQYLLRRGEYPDYAQWMGLSDSIRSC, -0.08 ± 0.056; under ITFYEDRAFQGRSYETTTDCPNLQPYFSRCNSIRVESGCWDLYERPNYQGQQYLLRRGEYPDYQQWMGLSDSIRSC, -0.133 ± 0.22. On to ITFYEDRAFQGRSYETTTDCPNLQPYFSRCNSIRVESGCWMLYERPNYQGQQYVLRRGEYPDYQQWMGLSDSIRSC, for which the abundance fitness was 0.02 ± 0.084.

Consider ITFYEDRAFQGRSYETTTDCKNLQPYFSRCNSIRVESGCWMLYERPNYQGQQYLLRRGEYPDYQQWMGLSDSIRSC, for which the abundance fitness is 0.016 ± 0.12.

As for ITFYEDRAFQGRSYETTTDCQNLQPYFSRCNSIRVESGCWMLYERPNYQGQQYLLRRGEYPDYQQWMGLSDSIRSC, the abundance fitness worked out at 0.016 ± 0.086.

As for ITFYEDRAFQGRSYETTTDCPNLQPYFSRCNSIRRESGCWMLYERPNYQGQQYLLRRGEYPDYQQWMGLSDSIRSC, the abundance fitness is -0.893 ± 0.42. ITFYEDRAFQGRSYETTTDCPNLQPYFSRCNSIRVESGCWMLYERPNYQGQQYLLRRGEYPDYQQWMGLSSSIRSC: the abundance fitness was -0.056 ± 0.055. Consider ITFYEDRAFQGRSYETTTDCPNLQPYFSRCNSIRVESGCWMLYERPNYQGQQYLLRRGEYPDYQQWMGLSNSIRSC, for which the abundance fitness is -0.007 ± 0.12. As for ITFYEDRAFQGRSYETTTDCPNLQPYFSRCNSIRVESGCWMLYERPRYQGQQYLLRRGEYPDYQQWMGLSDSIRSC, the figure is -0.038 ± 0.058. Under ITFYEDRAEQGRSYETTTDCPNLQPYFSRCNSIRVESGCWMLYERPNYQGQQYLLRRGEYPDYQQWMGLSDSIRSC stands -0.367 ± 0.21; under ITFYEDRAFQGRSYETTTDCPNLCPYFSRCNSIRVESGCWMLYERPNYQGQQYLLRRGEYPDYQQWMGLSDSIRSC, -0.131 ± 0.21; under ITFYEDRAFQGRSYETTTDVPNLQPYFSRCNSIRVESGCWMLYERPNYQGQQYLLRRGEYPDYQQWMGLSDSIRSC, -0.133 ± 0.076. As to ITFYEDRAFQGRSYETTTDPPNLQPYFSRCNSIRVESGCWMLYERPNYQGQQYLLRRGEYPDYQQWMGLSDSIRSC, the abundance fitness is -0.64 ± 0.13. Under ITFYEDRAFQGRSYETTTDCPNLQPYFSRCNSIRVESICWMLYERPNYQGQQYLLRRGEYPDYQQWMGLSDSIRSC stands -0.202 ± 0.15; under ITFYEDRAFQGRSYETTTDCPNLQPYFSRCNSIRVESGCWMLYERPNYQGQQYLLRRGGYPDYQQWMGLSDSIRSC, 0.019 ± 0.048.

Turning to ITFYEDRAFQGRFYETTTDCPNLQPYFSRCNSIRVESGCWMLYERPNYQGQQYLLRRGEYPDYQQWMGLSDSIRSC, the abundance fitness is -0.16 ± 0.18. As to ITFYEDRAFQGRSYETTTDCPNLQPYFSRCNSIRVESGCWMLYECPNYQGQQYLLRRGEYPDYQQWMGLSDSIRSC, the abundance fitness was -0.142 ± 0.19.

With LTFYEDRAFQGRSYETTTDCPNLQPYFSRCNSIRVESGCWMLYERPNYQGQQYLLRRGEYPDYQQWMGLSDSIRSC, the abundance fitness is -0.4 ± 0.38. Under ITFYEDRAFQGRSYETTTDCPNLQPYFSRCNSIRVESGCWMLYERPNYQGQQYLLRRGEYPDYQQWMGLSDSIRSQ stands -0.592 ± 0.15. For ITFYEDRAFQGRSYETTTDCPNLQPYFSRCNSIRVESGCWMLYERPNYQGQQYLLRRGEYPDYQQWMGLSDSICSC, the abundance fitness turned out to be 0.037 ± 0.088. As for ITFYEDRAFQGRSYETTTDCPNLQPYFSRCNSIRVESGCWMLYERPNYQGQQYLLRRGEYPDYQQWMGLSDSINSC, the figure is 0.107 ± 0.14; as for ITFYEDRAFQGRSYEVTTDCPNLQPYFSRCNSIRVESGCWMLYERPNYQGQQYLLRRGEYPDYQQWMGLSDSIRSC, 0.031 ± 0.083. As for ITFYEDRAFQGRSYEKTTDCPNLQPYFSRCNSIRVESGCWMLYERPNYQGQQYLLRRGEYPDYQQWMGLSDSIRSC, the figure is -0.011 ± 0.18; as for ITFYEDRAFQGRSYETTTDCPNLQPYFSRCNSIRVESGCWMLYERPNYQGQQYLLRRGEYKDYQQWMGLSDSIRSC, 0 ± 0.11. As for ITFYEDRAFQGRSYETTTDCPNLQPYFSRCNSIRVESGCWMLYERPNYQGQQYLLRRGEYVDYQQWMGLSDSIRSC, the figure is -0.083 ± 0.064; as for ITFYEDRAFQGRSYETTTDCPNLQPYFSRCNSIRVESGCWMLYERPNYQGQQYLLRRGEYEDYQQWMGLSDSIRSC, -0.094 ± 0.22. As for ITFYESRAFQGRSYETTTDCPNLQPYFSRCNSIRVESGCWMLYERPNYQGQQYLLRRGEYPDYQQWMGLSDSIRSC, the abundance fitness is -0.065 ± 0.097. On to ITFYEHRAFQGRSYETTTDCPNLQPYFSRCNSIRVESGCWMLYERPNYQGQQYLLRRGEYPDYQQWMGLSDSIRSC, for which the abundance fitness was 0.115 ± 0.23. As for ITFYEDRAFQGRSYETTTDCPNLQPYRSRCNSIRVESGCWMLYERPNYQGQQYLLRRGEYPDYQQWMGLSDSIRSC, the figure is -0.269 ± 0.08.

For the origin of these results see the Human Domainome abundance scans (Beltran et al. 2025).
